The record followed here is patent US20210324089A1 (ACCELERON PHARMA, published 2021).

This assay concerns the target T1, human ALK7-Fc comprising protein (human, UniProt Q8NER5 22-113, limits assumed).
T1 construct: The wording 'ALK7-Fc comprising protein' leaves open whether further chains are present; also called human ALK7-Fe comprising protein; not shown: Fc portion
T1 sequence: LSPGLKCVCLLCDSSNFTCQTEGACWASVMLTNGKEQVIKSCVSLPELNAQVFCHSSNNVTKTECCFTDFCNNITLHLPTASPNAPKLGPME
Briefly: SPR (Biacore T100/T200); antibody captured on FAB chip, ALK7-Fc comprising protein as analyte; 1:1 fit. The protocol: Experiments were performed using a Biacore T100/T200 biosensor (Biacore/GE Healthcare) at 25 and 37° C. ALK7 antibodies were captured on custom made FAB chip. A concentration series of ALK7-Fc comprising protein was injected over the flow cells at a flow rate of […]. To obtain kinetic rate constants the corrected data were fit to a 1:1 interaction model using BiaEvaluation software (GE Healthcare). The equilibrium binding constant KD was determined by the ratio of binding rate constants kd/ka.

B1: L01 (antibody, V domains shown)
VH: QVQLVQSGAEVKKPGSSVKVSCKASGGTFSSYAISWVRQAPGQGLEWMGSIIPIFGTANYAQKFQGRVTITADESTSTAYMELSSLRSEDTAVYYCARDPVGARYEVFDYWGQGTLVTVSS
VL: EIVMTQSPATLSVSPGERATLSCRASQSVSSNLAWYQQKPGQAPRLLIYSASTRATGIPARFSGSGSGTEFTLTISSLQSEDFAVYYCQQANTFPLTFGGGTKVEIK
notes: Human IgG from yeast libraries; also called LOL
On to B1, for which the off-rate (koff) (usually the rate constant with which the complex falls apart) was determined as 0.000367 s⁻¹.
